A word on the stoichiometry N: it is the number of molecules, sites or subunits per partner or assembly.

Consider two molecules from publication PMC5758883, “Analysis of the natively unstructured RNA/protein-recognition core in the Escherichia coli RNA degradosome and its interactions with regulatory RNA/Hfq complexes” (Nucleic Acids Research, 2017).

Data set [1] has as its target T1, RNase E 603–850 with a C-terminal hexahistidine tag (Escherichia coli, UniProt P21513 603-850).
T1 construct: also called Rne; source: E. coli BL21 (DE3), co-expressed with RhlB (pRSFDuet-1) with or without enolase (pET11-a); alone: RhlB and enolase removed on the column with 8 M urea; not shown: His6, C-terminal, kept
T1 sequence (looked up): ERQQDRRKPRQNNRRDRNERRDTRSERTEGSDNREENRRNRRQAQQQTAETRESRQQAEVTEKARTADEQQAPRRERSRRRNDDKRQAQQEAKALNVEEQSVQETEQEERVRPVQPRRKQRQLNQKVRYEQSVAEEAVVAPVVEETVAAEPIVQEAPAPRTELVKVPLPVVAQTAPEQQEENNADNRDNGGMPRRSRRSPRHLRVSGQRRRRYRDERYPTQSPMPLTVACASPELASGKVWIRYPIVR
Briefly: SEC-MALS; co-expressed, co-purified ternary and binary complexes loaded at 5.6 and 4.0 mg/ml on Superdex 200 10/300; 50 mM Tris–HCl pH 7.5, 100 mM NaCl, 50 mM KCl, 5 mM MgCl2, 2 mM DTT. The conditions noted are these: both partners purified. (In general: SEC sorts molecules by how far they enter the pores of the column.)

Data set [2] concerns the molecule itself. Description: native MS; native ESI and ion-mobility mass spectrometry of the co-purified ternary and binary complexes.

B1: DEAD-box helicase RhlB (enzyme, Escherichia coli, UniProt P0A8J8 1-421, looked up)
chain: MSKTHLTEQKFSDFALHPKVVEALEKKGFHNCTPIQALALPLTLAGRDVAGQAQTGTGKTMAFLTSTFHYLLSHPAIADRKVNQPRALIMAPTRELAVQIHADAEPLAEATGLKLGLAYGGDGYDKQLKVLESGVDILIGTTGRLIDYAKQNHINLGAIQVVVLDEADRMYDLGFIKDIRWLFRRMPPANQRLNMLFSATLSYRVRELAFEQMNNAEYIEVEPEQKTGHRIKEELFYPSNEEKMRLLQTLIEEEWPDRAIIFANTKHRCEEIWGHLAADGHRVGLLTGDVAQKKRLRILDEFTRGDLDILVATDVAARGLHIPAVTHVFNYDLPDDCEDYVHRIGRTGRAGASGHSISLACEEYALNLPAIETYIGHSIPVSKYNPDALMTDLPKPLRLTRPRTGNGPRRTGAPRNRRRSG
notes: E. coli DEAD-box helicase RhlB; HDX-MS covers both RecA-like domains and the tail 400–421, so probably the whole protein; also called RhIB
For B1, the “stoichiometry N” value in data set [1] stood at 1.

B2: enolase (enzyme, Escherichia coli)
chain: MSKIVKIIGREIIDSRGNPTVEAEVHLEGGFVGMAAAPSGASTGSREALELRDGDKSRFLGKGVTKAVAAVNGPIAQALIGKDAKDQAGIDKIMIDLDGTENKSKFGANAILAVSLANAKAAAAAKGMPLYEHIAELNGTPGKYSMPVPMMNIINGGEHADNNVDIQEFMIQPVGAKTVKEAIRMGSEVFHHLAKVLKAKGMNTAVGDEGGYAPNLGSNAEALAVIAEAVKAAGYELGKDITLAMDCAASEFYKDGKYVLAGEGNKAFTSEEFTHFLEELTKQYPIVSIEDGLDESDWDGFAYQTKVLGDKIQLVGDDLFVTNTKILKEGIEKGIANSILIKFNQIGSLTETLAAIKMAKDAGYTAVISHRSGETEDATIADLAVGTAAGQIKTGSMSRSDRVAKYNQLIRIEEALGEKAPYNGRKEIKGQA
notes: E. coli enolase; No tag is named for enolase in either construct; also called glycolytic enzyme enolase; enolase dimer; source: E. coli Rosetta (DE3), pETDuet, co-expressed and co-purified with His6-AR2–EBS
Turning to B2, the “stoichiometry N” value in data set [2] and in data set [1] was 2 each time.
